PMC3536711, “Directed Evolution of a Model Primordial Enzyme Provides Insights into the Development of the Genetic Code” (PLoS Genetics, 2013)

Biological target: 9-CM, simplified chorismate mutase composed of only nine different amino acids
Experiment: SEC; size-exclusion column after Ni-NTA affinity purification; dimer peak (major peak around 170 mL) isolated for each sample; small fraction of aggregates in the mutant proteins

stoichiometry N: 2
Substance: 9-CM, simplified chorismate mutase composed of only nine different amino acids (enzyme)
